Experimental data as given in IntAct's records for PubMed 25574826.

B1: Lon protease homolog, mitochondrial (Homo sapiens), P36776-1 (parent)
chain: MAASTGYVRLWGAARCWVLRRPMLAAAGGRVPTAAGAWLLRGQRTCDASPPWALWGRGPAIGGQWRGFWEASSRGGGAFSGGEDASEGGAEEGAGGAGGSAGAGEGPVITALTPMTIPDVFPHLPLIAITRNPVFPRFIKIIEVKNKKLVELLRRKVRLAQPYVGVFLKRDDSNESDVVESLDEIYHTGTFAQIHEMQDLGDKLRMIVMGHRRVHISRQLEVEPEEPEAENKHKPRRKSKRGKKEAEDELSARHPAELAMEPTPELPAEVLMVEVENVVHEDFQVTEEVKALTAEIVKTIRDIIALNPLYRESVLQMMQAGQRVVDNPIYLSDMGAALTGAESHELQDVLEETNIPKRLYKALSLLKKEFELSKLQQRLGREVEEKIKQTHRKYLLQEQLKIIKKELGLEKDDKDAIEEKFRERLKELVVPKHVMDVVDEELSKLGLLDNHSSEFNVTRNYLDWLTSIPWGKYSNENLDLARAQAVLEEDHYGMEDVKKRILEFIAVSQLRGSTQGKILCFYGPPGVGKTSIARSIARALNREYFRFSVGGMTDVAEIKGHRRTYVGAMPGKIIQCLKKTKTENPLILIDEVDKIGRGYQGDPSSALLELLDPEQNANFLDHYLDVPVDLSKVLFICTANVTDTIPEPLRDRMEMINVSGYVAQEKLAIAERYLVPQARALCGLDESKAKLSSDVLTLLIKQYCRESGVRNLQKQVEKVLRKSAYKIVSGEAESVEVTPENLQDFVGKPVFTVERMYDVTPPGVVMGLAWTAMGGSTLFVETSLRRPQDKDAKGDKDGSLEVTGQLGEVMKESARIAYTFARAFLMQHAPANDYLVTSHIHLHVPEGATPKDGPSAGCTIVTALLSLAMGRPVRQNLAMTGEVSLTGKILPVGGIKEKTIAAKRAGVTCIVLPAENKKDFYDLAAFITEGLEVHFVEHYREIFDIAFPDEQAEALAVER
partner: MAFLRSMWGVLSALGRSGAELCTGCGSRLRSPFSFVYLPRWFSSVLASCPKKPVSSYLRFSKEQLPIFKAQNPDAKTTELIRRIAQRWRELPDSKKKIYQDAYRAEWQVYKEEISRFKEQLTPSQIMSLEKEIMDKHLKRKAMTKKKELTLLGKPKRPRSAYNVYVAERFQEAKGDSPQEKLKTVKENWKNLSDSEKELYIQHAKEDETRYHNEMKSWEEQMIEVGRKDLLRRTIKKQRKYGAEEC

Variants of: B1
Conditions: with tfam_human TFAM

effect of a mutation on the interaction	Variant
with no effect	P676S
with no effect	R721G
